Target: EZH2 SRM-SANT1 (residues 141–251) (human) (UniProt Q15910)
Test: NMR titration; 15N-HSQC spectra of 0.05–0.10 mM 15N-EZH2 SRM-SANT1 with increasing concentrations of histone peptide; 25 °C; Kd from normalized CSPs, one-site model accounting for ligand depletion, averaged over significantly perturbed residues

Sequence of EZH2 SRM-SANT1 (residues 141–251) (human) (Q15910 141-251): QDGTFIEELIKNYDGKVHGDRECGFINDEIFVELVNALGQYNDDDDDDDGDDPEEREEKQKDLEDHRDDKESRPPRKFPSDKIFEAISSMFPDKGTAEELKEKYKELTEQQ

Kd: 300 µM
Substance: unmodified histone H4 peptide (residues 1–21) (from UniProt P62805 2-22)

— PMC6353875, “The EZH2 SANT1 domain is a histone reader providing sensitivity to the modification state of the H4 tail” (Scientific Reports, 2019)
